Values of other authors in patent publication US9925277B2, “Polynucleotide compositions containing amino acids” (ModernaTX, Inc., priority 2013, dated 2018).

Target: Factor IX (Homo sapiens, UniProt P00740, R384L)
Conditions: mutation at position R338L

Chain of Factor IX (P00740 47-461 R384L): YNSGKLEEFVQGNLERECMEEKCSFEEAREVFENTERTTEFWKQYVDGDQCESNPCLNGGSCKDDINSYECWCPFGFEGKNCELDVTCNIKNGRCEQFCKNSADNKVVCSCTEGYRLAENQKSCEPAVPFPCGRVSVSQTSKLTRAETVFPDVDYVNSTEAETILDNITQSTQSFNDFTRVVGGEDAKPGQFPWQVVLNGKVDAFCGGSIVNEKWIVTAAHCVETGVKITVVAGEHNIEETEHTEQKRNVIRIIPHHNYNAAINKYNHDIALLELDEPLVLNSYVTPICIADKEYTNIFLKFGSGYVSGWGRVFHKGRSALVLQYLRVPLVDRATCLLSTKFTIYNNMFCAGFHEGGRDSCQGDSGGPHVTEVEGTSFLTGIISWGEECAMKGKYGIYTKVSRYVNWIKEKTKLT

FIX Padua: Factor IX protein with mutation at position R338L, hyperactive naturally occurring variant
increased activity of Factor IX protein: 10 fold
